Results as given in patent publication US20110207628A1.

Tests used:
[1] = biological target: tubby-N (N-terminus of mouse tubby, 1M-242P), GST-free (mouse) (UniProt P50586); experiment: clonal phage on immobilized tubby-N, plaque assay
[2] = biological target: FLAG-tubby-F (full-length mouse tubby with N-terminal FLAG tag) (mouse) (UniProt P50586); experiment: clonal phage on immobilized FLAG-tubby-F, plaque assay
FLAG-tubby-F (full-length mouse tubby with N-terminal FLAG tag) (mouse), sequence (P50586 other isoform, or with tags, fused parts or gaps): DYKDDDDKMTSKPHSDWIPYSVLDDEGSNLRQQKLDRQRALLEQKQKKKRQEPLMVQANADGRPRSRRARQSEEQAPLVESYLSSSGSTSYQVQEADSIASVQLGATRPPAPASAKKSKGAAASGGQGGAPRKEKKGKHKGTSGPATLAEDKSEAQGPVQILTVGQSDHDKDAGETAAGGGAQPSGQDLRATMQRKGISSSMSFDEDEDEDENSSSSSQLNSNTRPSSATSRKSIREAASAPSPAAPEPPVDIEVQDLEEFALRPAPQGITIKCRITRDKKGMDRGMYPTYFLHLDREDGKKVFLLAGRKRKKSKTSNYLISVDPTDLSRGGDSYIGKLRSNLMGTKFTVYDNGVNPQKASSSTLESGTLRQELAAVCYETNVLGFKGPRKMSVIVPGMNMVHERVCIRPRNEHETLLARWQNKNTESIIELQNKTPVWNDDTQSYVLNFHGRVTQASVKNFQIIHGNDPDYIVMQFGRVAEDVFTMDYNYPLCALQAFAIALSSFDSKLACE

tubby-N (N-terminus of mouse tubby, 1M-242P), GST-free (mouse), sequence (P50586 1-242): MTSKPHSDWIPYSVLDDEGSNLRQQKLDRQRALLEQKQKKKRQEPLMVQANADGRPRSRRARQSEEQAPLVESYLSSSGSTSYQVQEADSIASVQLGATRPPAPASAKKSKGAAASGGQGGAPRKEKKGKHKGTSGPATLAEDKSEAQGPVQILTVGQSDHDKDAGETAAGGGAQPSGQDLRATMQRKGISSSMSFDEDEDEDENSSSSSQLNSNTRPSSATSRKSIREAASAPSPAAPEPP

B1: Regulated endocrine-specific protein 18 (Resp18) 68V-134K, phage clone (protein, mouse, UniProt P47939 68-134, looked up)
chain: VPEGMFWADDIAYELMTKKVEHLSRLHPQYPCRKDMKAVSPTANAGVRSKQEEKLQLLSPQKSPTVK
Question: How did the Binding to tubby-N (binding specificity of clonal phage vs. control phage) [1] turn out when B1 was run?
Answer: 10.3 X (fold)

Question: And the Binding to tubby-F (binding specificity to FLAG-tubby-F vs. to GFP-FLAG) [2]?
Answer: 4.8 X (fold)
